The assay concerns the target T1, PSF, full-length, fused to the GAL4 DNA-binding domain (pFN11A-PSF) (human, UniProt P23246 1-707).
T1 construct: PTB-associated splicing factor (PSF), human, full-length cDNA (GenBank BC051192), 707 amino acids; CheckMate/Flexi Vector Mammalian Two-Hybrid System (Promega), vector pFN11A; also called Gal4-PSF; source: CV-1 cells, transiently transfected, mammalian two-hybrid fusion
T1 sequence (looked up): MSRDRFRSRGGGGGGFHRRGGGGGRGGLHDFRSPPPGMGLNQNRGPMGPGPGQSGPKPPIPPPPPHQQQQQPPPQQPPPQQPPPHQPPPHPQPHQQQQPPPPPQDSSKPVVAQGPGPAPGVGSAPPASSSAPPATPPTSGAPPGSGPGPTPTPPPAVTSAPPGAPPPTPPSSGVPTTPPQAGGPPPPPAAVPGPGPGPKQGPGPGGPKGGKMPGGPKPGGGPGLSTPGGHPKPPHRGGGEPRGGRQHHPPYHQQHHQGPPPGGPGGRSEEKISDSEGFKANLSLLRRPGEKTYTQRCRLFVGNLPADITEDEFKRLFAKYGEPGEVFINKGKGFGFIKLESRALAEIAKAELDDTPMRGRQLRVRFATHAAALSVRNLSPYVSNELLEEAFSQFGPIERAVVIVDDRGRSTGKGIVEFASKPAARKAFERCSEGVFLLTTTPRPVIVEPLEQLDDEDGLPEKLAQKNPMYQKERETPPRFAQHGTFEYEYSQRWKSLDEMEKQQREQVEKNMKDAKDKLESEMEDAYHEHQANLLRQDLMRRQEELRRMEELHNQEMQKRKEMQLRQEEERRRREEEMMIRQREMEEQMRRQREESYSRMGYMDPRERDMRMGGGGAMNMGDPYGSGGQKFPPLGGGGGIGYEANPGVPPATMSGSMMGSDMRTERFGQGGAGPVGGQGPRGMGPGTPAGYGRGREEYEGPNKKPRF
Description: two-hybrid; mammalian two-hybrid in CV-1 cells: GAL4 DNA-binding domain-PSF (pFN11A) and VP16-PPARγ1 (pFN10A), GAL4-UAS luciferase reporter; also with rosiglitazone 0.1–10 µM, which did not affect the interaction. The conditions noted are these: partners not purified.

The record followed here is publication PMC3596311, “PTB-Associated Splicing Factor (PSF) Is a PPARγ-Binding Protein and Growth Regulator of Colon Cancer Cells” (PLoS ONE, 2013).

B1: PPARγ1, full-length, fused to the VP16 activation domain (pFN10A-PPARγ1) (natural protein, UniProt P37231-2 1-477, looked up)
chain: MTMVDTEMPFWPTNFGISSVDLSVMEDHSHSFDIKPFTTVDFSSISTPHYEDIPFTRTDPVVADYKYDLKLQEYQSAIKVEPASPPYYSEKTQLYNKPHEEPSNSLMAIECRVCGDKASGFHYGVHACEGCKGFFRRTIRLKLIYDRCDLNCRIHKKSRNKCQYCRFQKCLAVGMSHNAIRFGRMPQAEKEKLLAEISSDIDQLNPESADLRALAKHLYDSYIKSFPLTKAKARAILTGKTTDKSPFVIYDMNSLMMGEDKIKFKHITPLQEQSKEVAIRIFQGCQFRSVEAVQEITEYAKSIPGFVNLDLNDQVTLLKYGVHEIIYTMLASLMNKDGVLISEGQGFMTREFLKSLRKPFGDFMEPKFEFAVKFNALELDDSDLAIFIAVIILSGDRPGLLNVKPIEDIQDNLLQALELQLKLNHPESSQLFAKLLQKMTDLRQIVTEHVQLLQVIKKTETDMSLHPLLQEIYKDLY
notes: CheckMate/Flexi Vector Mammalian Two-Hybrid System (Promega), vector pFN10A; also called VP16-PPARγ; VP-16-PPARγ1; source: CV-1 cells, transiently transfected, mammalian two-hybrid fusion
In the case of B1, the “fold induction of GAL4 promoter-driven luciferase over empty vectors” value is 3 fold.
